Results taken from patent US6353153B1, “Enhanced transport with a plastid membrane transport protein” (priority 1996, dated 2002).

Tests used:
Type in all cases: cell-based, Escherichia coli
[1] = test system: alkaline phosphatase translocation in E. coli JM109 (DE3); assay: Induction and transport of alkaline phosphatase under phosphate starvation (immunoblot); conditions: low phosphate (50 μM), cells harvested at the two growth peaks
From the text: The directionality of the distribution of Bce44B in the cytoplasmic membrane and the capability of the bacterium to recognize and integrate Bce44B into the membrane raised the possibility that Bce44B may be functional as a foreign component of the bacterial protein transport apparatus. Functionality of Bce44B was therefore assessed by monitoring two transported bacterial proteins, alkaline phosphatase and , β-lactamase. Alkaline phosphatase is a single copy gene and is transported into the periplasm upon induction by phosphate starvation (50 μM) (Torriani et al. (1960) Biochim. Biophys. Acta. 38:460). The growth characteristics of Bce44B-containing bacteria were compared to those of a strain expressing Oee1-Dhfr, a chimeric chloroplast protein precursor. The expression vector used in the Oee1-Dhfr transformed strain was the same as the one in the Bce44B transformed cells. Growth was monitored in M9 minimal media with growth-permissive phosphate levels or with low phosphate levels (50 μM).
The induction and analysis of alkaline phosphatase was performed as described by Torniani et al. (1960) Biochim. Biophys. Acta. 38:460. […]

[2] = test system: β-lactamase transport in E. coli MM52 (secAts); assay: Ampicillin resistance, colony formation in temperature-sensitive secA mutant strain MM52; conditions: 30° C. permissive temperature
From the text: The effects of Bce44B on β-lactamase transport were further tested in a temperature-sensitive secA (secAts) mutant bacterial strain (MM52, a gift from Dr. Jon Beckwith, Harvard Medical School, Boston Mass.) to provide further evidence that the expressed Bce44B component affected protein translocation in bacteria and that the protein transport enhancement was not due solely to the upregulation of the existing bacterial transport machinery such as SecA. See Example 17. The defective protein translocation phenotype in MM52 appears primarily when cells are subjected to temperatures above 30° C. Protein translocation slows down and comes to a halt upon shifting to temperatures above 30° C. […] Effects on protein transport can then be monitored in this strain by tracking the β-lactamase profiles at permissive and non-permissive temperatures.
The same Bce44B gene construct and control Oee1-Dhfr plasmid were introduced into MM52 and its wild type counterpart strain MC4100 (containing the wild-type SecA) via electroporation. The role of Bce44B in protein translocation was assessed as before using three different criteria: 1) the level of antibiotic resistance conferred; 2) the profile of transported versus precursor β-lactamase at permissive and non-permissive temperatures; and 3) the level of sensitivity of protein transport to sodium azide. […]

[3] = test system: β-lactamase translocation in E. coli JM109(DE3); assay: Immunoblot of transported and processed β-lactamase; conditions: per cell basis, four hours, ampicillin 50 μg to 3 mg/ml
Procedure: Changes to β-lactamase transport were monitored by two different approaches: 1) the ability to form colonies on solid LB-agar plates containing increasing concentrations of ampicillin (50 μg/ml to 3.0 mg/ml); and 2) the level of transported and processed β-lactamase detected by immunoblotting total protein samples of cells grown in LB-broth containing increasing ampicillin concentrations.
The same cells were also used to determine the level of transported β-lactamase grown in media containing increasing concentrations of ampicillin. Cultures were diluted 5× into LB broth with increasing amounts of ampicillin (50 μg/ml to 3.0 mg/ml) and allowed to grow up to 4 hours. The level of transported β-lactamase was monitored by immunoblotting analysis of samples taken at time intervals of 0 hr, 0.5 hr, 1.0 hr, 1.5 hr, 2.0 hr, 3 hr and 4 hr. Immunoblot analysis was performed on total cellular protein samples with anti-p-lactamase antibodies as outlined above.

B1: Bce44B: plastid transport protein, Brassica napus 44 kDa chloroplast envelope protein, member of Com44/Cim44, encoded by SEQ ID NO:1 (protein)
chain: MQTAMKTMMNQMNTQNSQFNNPGFPTGAGAGAGSPFPFPFPPQTSPTTSPFQPQSQSSGATVDLTATKVDRPPVSKPQPTPIPPTKSIEVYKPSVVVEENKAMKEEKNYAFEDVSPEETTKESPFSNYEEVSETSAPKETRLFDDVLQNGAAPANGATASDVFQSLGAGKGWAGGSVEVLEKMIEYPTFQKMLYPHLPEEMRNPESFKWVRKNPQYRQQLQDMLNNMSESGEWDKRMTETLKNFDPNSPEVKQGFDQLGLTPEEVISKIMENPDVSMAFQNPRVEAALMDCSENPMNIMKYQNDKEVMDVFNKISQLFPGLTG
level of processed alkaline phosphatase relative to Oee1-Dhfr-expressing cells [1]: higher level | ampicillin concentration up to which expressing cells form colonies [2]: up to 3 mg/ml | level of processed β-lactamase compared with Oee1-Dhfr-expressing cells [3]: higher
